According to article PMC11150526, “Pseudomonas aeruginosa gene PA4880 encodes a Dps-like protein with a Dps fold, bacterioferritin-type ferroxidase centers, and endonuclease activity” (Frontiers in Molecular Biosciences, 2024):

Columns and labels:
[1] = biological target: the molecule itself; assay: SEC; calibrated Superdex 200 Increase 10/300 GL; 50 mM Tris pH 7.5, 1 mM MgSO4; also run after titration with Fe2+ (0 h and 24 h), and after MgSO4 was added back to disassembled protein (only partial reassembly)
[2] = biological target: the molecule itself; assay: crystal structure; Pa DpsL-dimer (also called Pa DpsL-monomer); protein purified without MgSO4; crystals from 8% PEG 6,000, 100 mM MES pH 6.0, 100 mM MgCl2; 1.3 A; one molecule in the asymmetric unit, dimer by crystallographic symmetry (PISA)

B1: Pseudomonas aeruginosa Dps-like protein (product of gene PA4880) (natural protein, Pseudomonas aeruginosa PAO1, UniProt Q9HUT3 1-177, looked up)
chain: MTTVQLTDVQTLRDRARKNIQEGAVTEGYSADRQTVLRLLNEALATELVCFLRYKRHYFMATGLKASIAAAEFLEHANQEMQHADQLAERIMQLGGEPDFNPRGLEERSHAEYVEGKTLKDMVTENLIAERIAIDSYREIITYLGNDDPTTRRIFEEILAQEEEHADDMADILDDLA
notes: Product of gene PA4880 of P. aeruginosa PAO1 (annotated as probable bacterioferritin); The gene was synthesised with silent, codon-optimising mutations and cloned NdeI/BamHI into pET11a; The structures number residues from Met1; No tag is mentioned; As isolated it carries di-iron ferroxidase centres (8-10 Fe per 12-mer); also called Pa DpsL; PaDpsL; source: E. coli BL21-Gold (DE3), pET11a, …
stoichiometry N [1]: 12 | stoichiometry N [2]: 2
